Test results published in patent US6500670.

Molecular target: T1, human pyruvate dehydrogenase E1alpha/E1beta subunit complex, co-expressed in and purified from E. coli M15, P08559
T1 chain 1: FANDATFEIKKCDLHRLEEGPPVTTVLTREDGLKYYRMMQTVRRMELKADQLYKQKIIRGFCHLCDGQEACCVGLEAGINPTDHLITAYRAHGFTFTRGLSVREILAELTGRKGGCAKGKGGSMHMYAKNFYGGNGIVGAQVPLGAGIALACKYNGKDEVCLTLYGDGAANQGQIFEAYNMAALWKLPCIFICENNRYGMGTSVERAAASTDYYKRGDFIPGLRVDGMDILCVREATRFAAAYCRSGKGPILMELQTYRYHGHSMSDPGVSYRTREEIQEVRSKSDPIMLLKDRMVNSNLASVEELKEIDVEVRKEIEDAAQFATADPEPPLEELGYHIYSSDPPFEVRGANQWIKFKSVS
T1 chain 2: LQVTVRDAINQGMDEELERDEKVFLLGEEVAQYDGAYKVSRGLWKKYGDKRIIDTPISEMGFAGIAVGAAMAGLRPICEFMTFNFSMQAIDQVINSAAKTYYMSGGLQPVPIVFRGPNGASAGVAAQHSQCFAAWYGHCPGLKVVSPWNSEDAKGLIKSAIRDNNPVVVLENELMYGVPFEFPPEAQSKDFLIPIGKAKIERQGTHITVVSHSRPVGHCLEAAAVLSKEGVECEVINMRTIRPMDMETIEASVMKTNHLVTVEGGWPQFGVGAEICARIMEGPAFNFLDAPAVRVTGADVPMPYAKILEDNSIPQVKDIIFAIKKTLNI

B1: Arabidopsis thaliana pyruvate dehydrogenase kinase (PDHK) fusion protein, product of clone YA5 expressed in E. coli from construct pZTa5 (pTrcHisB vector) (protein)
chain: MAVKKACEMFPKSLIEDVHKWGCMKQTGVSLRYMMEFGSKPTERNLLISAQFLHKELPIRVARRAIELQTLPYGLSDKPAVLKVRDWYLESFRDMRAFPEIKDSGDEKDFTQMIKAVKVRHNNVVPMMALGVNQLKKGMNSGNLDEIHQFLDRFYLSRIGIRMLIGQHVELHNPNPPLHTVGYIHTKMSPMEVARNASEDARSICFREYGSAPEINIYGDPSFTFPYVPTHLDLMMYELVKNSLRAVQERFVDSDRVAPPIRIIVADGIEDVTIKVSDEGGGIARSGLPRIFTYLYSTARNPLEEDVDLGIADVPGTMGGYGYGLPISRLYARYFGGDLQIISMEGYGTDAYLHLSRLGDSQEPLP
With B1 the “in vitro phosphorylation (incorporation of 32P from gamma-32P-ATP into the E1 subunit; SDS-PAGE and autoradiography; 2, 5, 10, 15, 20 min)” value was “time-dependent (incubation times of 2, 5, 10, 15, or 20 min) in vitro phosphorylation of the E1α/E1β complex substrate by the action of the plant PDHK (clone YA5) fusion protein”.
